The target of this test is T1, proPC2 (proform of the prohormone convertase PC2) (UniProt P28841 25-637).
T1 sequence (looked up): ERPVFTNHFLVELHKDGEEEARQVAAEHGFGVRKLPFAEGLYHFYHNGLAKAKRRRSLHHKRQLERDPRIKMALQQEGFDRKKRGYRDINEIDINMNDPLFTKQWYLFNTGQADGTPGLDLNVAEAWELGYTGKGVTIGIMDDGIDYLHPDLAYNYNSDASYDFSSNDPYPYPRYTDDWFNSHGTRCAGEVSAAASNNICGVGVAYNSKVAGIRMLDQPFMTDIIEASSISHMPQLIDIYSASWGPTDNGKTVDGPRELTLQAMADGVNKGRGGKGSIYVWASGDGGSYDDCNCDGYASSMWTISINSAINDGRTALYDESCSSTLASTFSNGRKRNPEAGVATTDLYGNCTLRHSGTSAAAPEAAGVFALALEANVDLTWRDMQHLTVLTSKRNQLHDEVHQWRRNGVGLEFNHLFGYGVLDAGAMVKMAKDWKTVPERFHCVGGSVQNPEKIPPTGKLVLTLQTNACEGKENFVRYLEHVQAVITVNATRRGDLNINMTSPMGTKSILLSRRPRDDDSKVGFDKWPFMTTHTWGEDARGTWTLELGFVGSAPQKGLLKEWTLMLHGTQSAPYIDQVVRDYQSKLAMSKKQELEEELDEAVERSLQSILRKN
Description: co-IP.

“And” between values parts separate entries of the source, which are not always exact repeats. Equal entries are not always repeated.

B1: 27 kD 7B2 (rat) (natural protein, UniProt P27682 25-210, looked up)
chain: YSPRTPDRVSETDIQRLLHGVMEQLGIARPRVEYPAHQAMNLVGPQSIEGGAHEGLQHLGPFGNIPNIVAELTGDNIPKDFSEDQGYPDPPNPCPLGKTADDGCLENAPDTAEFSREFQLDQHLFDPEHDYPGLGKWNKKLLYEKMKGGQRRKRRSVNPYLQGKRLDNVVAKKSVPHFSEEEKEPE
In the case of B1, the “stoichiometry N” value was 1.12 mol 7B2 per mol PC2 (molar ratio, Clone#1) and 1.09 mol 7B2 per mol PC2 (molar ratio, Clone#2).

Source of the values: publication PMC2291188 (The Journal of Cell Biology, 1995).
